Source: PMC2603141 (Virology, 2008)

How the values were obtained:
[1] = target: the molecule itself; assay: reducing and non-reducing SDS-PAGE
[2] = target: the molecule itself; assay: negative-stain electron microscopy

B1: PIV 5 hemagglutinin-neuraminidase (HN) ectodomain beginning at residue 56, HN(ecto56) (domain or fragment)
chain: SPSSGLGSITDLLNNILSVANQIIYNSAVALPLQLDTLESTLLTAIKSLQTSDKLEQNCSWSAALINDNRYINGINQFYFSIAEGRNLTLGPLLNMPSFIPTATTPEGCTRIPSFSLTKTHWCYTHNVILNGCQDHVSSNQFVSMGIIEPTSAGFPFFRTLKTLYLSDGVNRKSCSISTVPGGCMMYCFVSTQPERDDYFSAAPPEQRIIIMYYNDTIVERIINPPGVLDVWATLNPGTGSGVYYLGWVLFPIYGGVIKGTSLWNNQANKYFIPQMVAALCSQNQATQVQNAKSSYYSSWFGNRMIQSGILACPLRQDLTNECLVLPFSNDQVLMGAEGRLYMYGDSVYYYQRSNSWWPMTMLYKVTITFTNGQPSAISAQNVPTQQVPRPGTGDCSATNRCPGFCLTGVYADAWLLTNPSSTSTFGSEATFTGSYLNTATQRINPTMYIANNTQIISSQQFGSSGQEAAYGHTTCFRDTGSVMVYCIYIIELSSSLLGQFQIVPFIRQVTLS
modifications: carbohydrate at 4 N-linked glycosylation sites; inter-chain disulfide bond (covalent dimers)
stoichiometry N [1]: 2 | stoichiometry N [2]: 4
